Data taken from the DeepSol protein solubility set.

Assay: soluble on expression in E. coli; label from the status in PepcDB or PDB records

Soluble on expression in E. coli, soluble:
MRHLFASLAFMLATSTVAHAEKLTLEAITGPLPLSGPTLMKPKVAPDGSRVTFLRGKDSDRNQLDLWSYDIGSGQTRLLVDSKVVLPGTETLSDEEKARRERQRIAAMTGIVDYQWSPDAQRLLFPLGGELYLYDLKQEGKAAVRQLTHGEGFATDAKLSPKGGFVSFIRGRNLWVIDLASGRQMQLTADGSTTIGNGIAEFVADEEMDRHTGYWWAPDDSAIAYARIDESPVPVQKRYEVYADRTDVIEQRYPAAGDANVQVKLGVISPAEQAQTQWIDLGKEQDIYLARVNWRDPQHLSFQRQSRDQKKLDLVEVTLASNQQRVLAHETSPTWVPLHNSLRFLDDGSILWSSERTGFQHLYRIDSKGKAAALTHGNWSVDELLAVDEKAGLAYFRAGIESARESQIYAVPLQGGQPQRLSKAPGMHSASFARNASVYVDSWSNNSTPPQIELFRANGEKIATLVENDLADPKHPYARYREAQRPVEFGTLTAADGKTPLNYSVIKPAGFDPAKRYPVAVYVYGGPASQTVTDSWPGRGDHLFNQYLAQQGYVVFSLDNRGTPRRGRDFGGALYGKQGTVEVADQLRGVAWLKQQPWVDPARIGVQGWSNGGYMTLMLLAKASDSYACGVAGAPVTDWGLYDSHYTERYMDLPARNDAGYREARVLTHIEGLRSPLLLIHGMADDNVLFTNSTSLMSALQKRGQPFELMTYPGAKHGLSGADALHRYRVAEAFLGRCLKP
MASIPTVNVIGAGLAGSEAAWHIANMGVNVRLYEMRPNKMTPAHHTAQFAELVCTNSLRANQLANAAGLLKAEMRQMDSIVMQAAEHHAVPAGGALAVDRDTFSAEITAAITALPNVEIINEEITSLPDGITVVATGPLTAASLAKSIQAFNDEDDLHFFDAAAPILTKDSIDMDKVYLKSRYDRGEAAYLNCPMTEAEFDVFYDALIHAEMAEAHDFENSDVFEGCMPIEVMAQRGRQTMLFGPLKPVGLEDPKTGKQPFAVVQLRQDDAAGDLYNIVGFQTHLKWGEQKRVFSLIPGLENVEFVRYGVMHRNTFMKSPKLLTPTYQTQQRPDLFFAGQMTGVEGYIESAASGIVAGTNAARLALGLEPVVFPTDTMMGAMAHYITHTSASNFQPMNANFGIMPKLKQRIRDKRERNTAISERALADLTTFKDETLTVNNLEHHHHHH
HSPKVSSQNRTRSFGHFPGPEFLDVEKTSFSQEQSCDSAGEGSERIHQDSESGDELSSSSTEQIRATTPPNQGRPDSPVYANLQELKISQSALPPLPGSPAIQINGEWETHKDSSGRCYYYNRGTQERTWKPPRWTRDASISKGDFQNPGDQEWLKHVDDQGRQYYYSADGSRSEWELPKYNASSQQQREIIKSRSLDRRLQEPIVLTKWRHSTIVLDTNDKESPTASKPCFPENESSPSSPKHQDTDQEKYGLLNVTKIAENGKKVRKNWLSSWAVLQGSSLLFTKTQGSSTSWFGSNQSKPEFTVDLKGATIEMASKDKSSKKNVFELKTRQGTELLIQSDNDTVINDWFKVLSSTINNQAVETDEGIEEEIPDSPGIEKHDKEKEQKDPKKLRSFKVSSIDSSEQKKTKKNLKKFLTRRPTLQAVREKGYIKDQVFGSNLANLCQRENGTVPKFVKLCIEHVEEHGLDIDGIYRVSGNLAVIQKLRFAVNHDEKLDLNDSKWEDIHVITGALKMFFRELPEPLFTFNHFNDFVNAIKQEPRQRVAAVKDLIRQLPKPNQDTMQILFRHLRRVIENGEKNRMTYQSIAIVFGPTLLKPEKETGNIAVHTVYQNQIVELILLELSSIFGR
SVRDDLQVVLDTSPPDDTGFSTLERTMLRNILGLHDRRIADVMVHRADIVAIKQDIQLGELLSLFQDAAHSRLVVYNETLDDPVGIVHIRDLVAFMTAKAKVPPATVAKRKKALPAGLDLRAIDLKMPLTETGIIRKLLYVPPSMRAIDLLAQMQAARIHLALVVDEYGGTDGLVSIEDIVEQIVGEID
SRRMKANARERNRMHGLNAALDNLRKVVPCYSKTQKLSKIETLRLAKNYIWALSEILRSG
MEVTDVRLRRVNTDGRMRAIASITLDHEFVVHDIRVIDGNNGLFVAMPSKRTPDGEFRDITHPINSSTRGKIQDAVLNEYHRLGDTEALEFEEAGAS
MAHHHHHHMCAKLRDSANISSLRKERDCWQREVARVSDAVRVLCGGANICSNVESPTEWAESLCEAVQDGQAALVCLSLELWTGGTWAGIQGFKEQLTAYVGACASAAKEAAERVEALEVEVLRLKESEASLSARCENTEAHARNVEEDLKRASTQAERVSELEQETSDLRTRCNLLRKELQRQREAMQRDRPQPHETANSETAASPITENASAVQSVLLAAAGCVSERDVATFVGSRGSQDGSLKLSKVGAELLIKENAELKRENAHNNGVIAQYIRELEGYKANERVQLSIEYLRNIVQQYLCAAEDLRPKMIPAICTVLEFSSKQKEDVQTANPRCPRFH
MKAQEVPSTTFTGGETVLTFKGGVHPPELKEWSKDKPIERAPLPQKVFVFLSNHAGNPAKPVVSPGDEVKTGQVIGEPEGFISAYLHSPVTGRVLEIKKILHPILGKPIEAIVIERTSDDEWVHIETGDFERMSKEEILEIIKKAGIVGLGGAMFPTHVKLSPPPEKKVDTLIVNGAECEPVLTIDHRLMLERAEDILQGILIMMKVLGVQKAVVGVESNKMDAYHNLKKVFKGYPVDVALLRTKYPQGAEKQLIYAITGRMVPRGGLPMDVGVVVQNVGTCVAVKEAVVDGKPLVERGMTVSGDAVKNQKNLIVRIGTPVKDVIDYCGGIDENTERVILGGPMMGISITNLDIPVMKGTSGITAFLPKKSRPQKPCIRCSECVQVCPMNLQPYLLYLLSTKRKYDEAVENGLMDCIECGSCTYTCPSKIEHVRYIKLAKTVYRATRRGRRAAALEHHHHHH
GSQPAKKTYTWNTKEEAKQAFKELLKEKRVPSNASWEQAMKMIINDPRYSALAKLSEKKQAFNAYKVQTEK
MIEQIGADSKSAENKQERKLYIETYGCQMNVADSEVVASVMQMDGYNLTDNVDEADTILVNTCSVRDNAEQKVLNRLAYYHSLRKKRRASSRLVIGVLGCMAERVKEELIREHHVDVVAGPDSYLDLPNLVGAAEQGEKAINVELSTQETYKDVMPLKMGGVHINGFVSIMRGCNNFCSYCIVPYTRGRERSREIESILNEVRDLKAKNFREVTLLGQNVNSYRYEQNGRIIRFPDLLAAVAEAVPDMRIRFTSPHPKDMDDEAIAVMARYRNICNHIHLPAQSGSDKMLRVMKRGYTRRWYLDRVAAIRRAIPDCAISSDLFCGFHSETEEDFEATLSLMEEVRYDSAFMFKYSERPGTYAARHLADDVPEEVKLSRLDRMIALQNRLSEESNKRDIGKTFEVLIEGFSKRSREQLFGRTQQNKVVIFDKNGHRVGQYIYVRIKDASSATLFGEVVETPTSELEHHHHHH
MLQGKAFLITGAGGALSRALIPAFHQAGARLFLSDPRPERMAERAQAVGAKTFVADLTRLEEALALARFVEEEAPLYGVVHTVGGFAAGRFLDTDPGLYDWMLDLNLRTTFNLLKAVLPYMAKRGEGFFAAFAAGPAWTGAGPGRALYTAAKTALASLLRSLQGEVEGVRFLVVYPMGTLDTEANRKAMPEADFSRWIAPELVAKVVVEAAGAKGGRLLELPIYPPL
MVTPREPKKRTTRKKKDPNAPKRALSAYMFFANENRDIVRSENPDITFGQVGKKLGEKWKALTPEEKQPYEAKAQADKKRYESEKELYNATLA

Soluble on expression in E. coli, not soluble:
MGSDKIHHHHHHMSMSVQQIDWDLALIQKYNYSGPRYTSYPTALEFSEDFGEQAFLQAVARYPERPLSLYVHIPFCHKLCYFCGCNKIVTRQQHKADQYLDALEQEIVHRAPLFAGRHVSQLHWGGGTPTYLNKAQISRLMKLLRENFQFNADAEISIEVDPREIELDVLDHLRAEGFNRLSMGVQDFNKEVQRLVNREQDEEFIFALLNHAREIGFTSTNIDLIYGLPKQTPESFAFTLKRVAELNPDRLSVFNYAHLPTIFAAQRKIKDADLPSPQQKLDILQETIAFLTQSGYQFIGMDHFARPDDELAVAQREGVLHRNFQGYTTQGDTDLLGMGVSAISMIGDCYAQNQKELKQYYQQVDEQGNALWRGIALTRDDCIRRDVIKSLICNFRLDYAPIEKQWDLHFADYFAEDLKLLAPLAKDGLVDVDEKGIQVTAKGRLLIRNICMCFDTYLRQKARMQQFSRVI
KVTKLINDDPTLTHDQKVDQINKVEQAKLDAIKSVDDAQTADAINDALGKGIENINNQYQHGDGVDVRKATAKGDL
MNRICELLGIEHPIISGGMVWCSGWKLASAVSNCGGLGLIGAGSMHPDNLEHHIRSCKAATDKPFGVNVPLLYPEMDKIMEIIMREHVPVVVTSAGSPKVWTAKLKAAGSKVIHV
MSASVPADLRNLRACLLCSLVKSVESFQKEGCENCEDVLHLKGDEEKVYDCTSANYDGMIAAMSNNESWVCKWQKMQRKVKGMYAISVSGVLPNNIVSELKSLGVRYKPNQRDYSTQFKK
MGSDKIHHHHHHMAQIIVVTSGKGGVGKTTSSAAIATGLALKGKKTVVIDFDIGLRNLDLIMGCERRVVYDFVNVINGEANLNQALIKDKRCDKLFILPASQTRDKDALTKEGVGRVLENLAKDFDYIVCDSPAGIEQGAMMALYFADIAIVTTNPEVSSVRDSDRILGMLQSRSRRAELSLEPIKEYLLLTRYSPARVKTGEMLSVEDVKEILAIELLGVIPESQSVLKASNSGVPVIIDQESDAGLAYGDTVARLLGDDVPVRFITEEKKGFLKRIFGS
MRRYASYPTYSSVHPVGLISRVSGASGIGCRMRRYASYPTYSSVHPVGLISRVSGASGIGCRMRRYASYPTYSSVHPVGLISHVSGASGIGCRMRRHPSYPTYSSVHLVGLISRVSDASGIGCRIQSTGVFYFTWLRANRLSSFSSYWLEHHHHHH
MGHHHHHHSHMGQFYEAESCLVEAGRLPAGQRRFAHFPGLASELLLTGLPLELIDGSTLSMPVRWVTGLLKELHVRLERRSRLVVLSTVGVPGTGKSTLLNTMFGLRFATGKSCGPRGAFMQLITVAEGFSQDLGCDHILVIDSGGLIGGALTSAGDRFELEASLATLLMGLSNVTVISLAETKDIPAAILHAFLRLEKTGHMPNYQFVYQNLHDVSVPGPRPRDKRQLLDPPGDLSRAAAQMEKQGDGFRALAGLAFCDPEKQHIWHIPGLWHGAPPMAAVSLAYSEAIFELKRCLLENIRNGLSNQNKNIQQLIELVRRL
MELDLISYELDEKTKEGIEKVVEKFFTKAEPDLVLIFDKAGRILACKGMDISDTYSEFISSILSALFFASEELTSMLDKNDEMKDVFYETKNRVFLMARLEKDFLIGVISRKNLSLGSIRLFFNHLVSDLNAVLKNLKEVEKKSLKISKEELKKKLDQILGS
MGGSHHHHHHGMASALSWKEARCQPAFLKDQARAIRLPPVDACRTQVRHGTGWGREPGILTGWGRRARDPDLGALPPGIQAAFCPGLPRCIEIELVHTAP
LIPILGLGNYTAQVDIELDFSAVEQTRKVFDPNTPATRSEYTLEDYNNGNVVAGVPGALSNQPPADASIPQDVAQMKDGSVMGQGSVHKEATRNYELDTTISHERKQSGVINRQTVAVAVKSRSSVNPDTGEVTYTPLSEADLNSIRQVLIGTVGYSENRGDLLNVLSMPF
